Key:
[1] = biological target: Alkaline Phosphatase-tagged extracellular domains of Neogenin (Ec-Neogenin-AP); assay: plate competition binding assay, His-tagged protein coated, AP-tagged protein detected with pNPP at 405 nm; sRGMa pre-incubated with Ec-Neogenin-AP
[2] = biological target: Neogenin on murine brain-derived endothelial cells (b.end3) (mouse) (UniProt P97798); assay: cell-based or functional assay
Chain of Neogenin on murine brain-derived endothelial cells (b.end3) (mouse) (P97798 37-1492): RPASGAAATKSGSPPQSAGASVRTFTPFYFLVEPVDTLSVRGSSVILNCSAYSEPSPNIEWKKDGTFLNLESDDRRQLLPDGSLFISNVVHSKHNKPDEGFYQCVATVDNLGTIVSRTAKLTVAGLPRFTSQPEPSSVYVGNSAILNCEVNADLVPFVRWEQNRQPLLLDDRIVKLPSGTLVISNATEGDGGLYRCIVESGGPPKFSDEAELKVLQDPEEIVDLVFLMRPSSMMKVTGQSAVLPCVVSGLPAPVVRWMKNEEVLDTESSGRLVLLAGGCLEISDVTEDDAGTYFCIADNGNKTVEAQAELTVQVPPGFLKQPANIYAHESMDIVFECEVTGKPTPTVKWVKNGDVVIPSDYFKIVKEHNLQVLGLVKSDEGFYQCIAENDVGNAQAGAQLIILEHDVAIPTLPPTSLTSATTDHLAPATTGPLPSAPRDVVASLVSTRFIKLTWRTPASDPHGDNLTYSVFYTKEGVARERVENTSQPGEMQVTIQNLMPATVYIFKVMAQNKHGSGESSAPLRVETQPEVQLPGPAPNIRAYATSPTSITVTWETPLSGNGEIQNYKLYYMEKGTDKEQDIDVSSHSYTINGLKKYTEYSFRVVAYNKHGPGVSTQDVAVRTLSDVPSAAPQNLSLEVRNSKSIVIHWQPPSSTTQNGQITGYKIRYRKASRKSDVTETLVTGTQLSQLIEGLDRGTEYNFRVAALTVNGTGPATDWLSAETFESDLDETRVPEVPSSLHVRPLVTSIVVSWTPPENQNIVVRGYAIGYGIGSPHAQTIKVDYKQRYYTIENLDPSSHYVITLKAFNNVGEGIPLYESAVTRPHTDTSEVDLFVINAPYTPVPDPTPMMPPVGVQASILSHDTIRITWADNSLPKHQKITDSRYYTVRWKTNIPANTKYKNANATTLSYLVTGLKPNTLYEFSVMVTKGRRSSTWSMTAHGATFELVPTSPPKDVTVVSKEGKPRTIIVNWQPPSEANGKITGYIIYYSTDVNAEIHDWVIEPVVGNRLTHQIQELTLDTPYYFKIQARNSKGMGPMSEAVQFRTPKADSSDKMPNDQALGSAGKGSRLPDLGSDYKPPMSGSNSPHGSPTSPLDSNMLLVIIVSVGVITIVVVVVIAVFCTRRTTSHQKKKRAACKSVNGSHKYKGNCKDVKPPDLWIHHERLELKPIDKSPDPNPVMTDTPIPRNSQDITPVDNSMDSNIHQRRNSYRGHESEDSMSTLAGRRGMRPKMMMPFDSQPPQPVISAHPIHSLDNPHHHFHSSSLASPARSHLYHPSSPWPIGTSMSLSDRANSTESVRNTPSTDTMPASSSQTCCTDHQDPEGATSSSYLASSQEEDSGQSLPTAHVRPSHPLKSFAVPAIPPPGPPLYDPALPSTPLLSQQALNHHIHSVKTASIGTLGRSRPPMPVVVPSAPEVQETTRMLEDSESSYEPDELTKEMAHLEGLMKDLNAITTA

“soluble RGMa (sRGMa), mouse, His tag replacing the GPI anchor (from UniProt Q6PCX7 170-427) (ligand)” showed a fold reduction of binding intensity of RGMc to Neogenin against BSA control [1] of 3 fold and a fold decrease in Claudin 5 levels in b.End3 cells (Western blot) [2] of 2 fold.

Source: patent publication US20200016237A1
